Data set [1] relates to Cas13b-t1-REPAIR R and H to A in both HEPN domains (numbering not given) (Atlantic deep subsurface metagenome). In words: cell_activity. The following applies: non-targeting control.
In data set [2] the test system is Cas13b-t3-REPAIR R and H to A in both HEPN domains (numbering not given) (Planctomycetes bacterium isolate B28_G16). In words: cell_activity. The settings on record: non-targeting control.

The values below come from patent US20230025039.

Turning to “non-targeting editing gRNA (b-t1) ; Cypridina luciferase W85X mRNA”, the activity (normalized RLU) in data set [1] is 0.00795.

In turn, “non-targeting editing gRNA (b-t3) ; Cypridina luciferase W85X mRNA” had an activity (normalized RLU) in data set [2] of 0.00368.
